Our source for the Kd values is publication PMC7658359 (2020).

Some targets named below: OsChz1-C mutant 2M (rice (Oryza sativa)); OsChz1-C mutant 1M (rice (Oryza sativa)); OsChz1-C mutant 3M (rice (Oryza sativa)).
Common to all, as to test: ITC

B1: Arabidopsis histone H2A (HTA1)-H2B (HTB1) dimer (complex)
chain 1: MAGRGKTLGSGGAKKATSRSSKAGLQFPVGRIARFLKAGKYAERVGAGAPVYLAAVLEYLAAEVLELAGNAARDNKKTRIVPRHIQLAVRNDEELSKLLGDVTIANGGVMPNIHNLLLPKKAGASKPQED
chain 2: MAPRAEKKPAEKKTAAERPVEENKAAEKAPAEKKPKAGKKLPPKEAGDKKKKRSKKNVETYKIYIFKVLKQVHPDIGISSKAMGIMNSFINDIFEKLAQESSKLARYNKKPTITSREIQTAVRLVLPGELAKHAVSEGTKAVTKFTSS
Consider B1, for which the Kd with OsChz1-C mutant 2M was determined as 259 nM; with OsChz1-C mutant 1M, 150 nM; with OsChz1-C mutant 3M it was 146 nM.
